The target in one series is E. coli MurD (Escherichia coli, UniProt P14900). The following applies: 350 μM UDP-N-acetyl-muramyl-L-alanine.
The next series has as its system S. pyogenes MurD. Nature of the series: ATP-dependent MurD activity, pyruvate kinase/lactate dehydrogenase coupled enzyme assay (ADP formation). Format: biochemical, Streptococcus pyogenes. As to conditions: partially purified, UDP-N-acetylmuramyl-L-ala 350 μM, D-glutamate 1 mM, ATP 1 mM, 200 μl, 25° C. The protocol:
The cell pellet from 100 ml of induced culture prepared as described above was resuspended in 10 ml BT buffer (50 mM bis-tris-propane, pH 8.0, containing 100 mM potassium chloride and 1% glycerol) at 4° C. Cells were lysed either by freeze-thaw or by French Press. After centrifugation, the supernatant was mixed with 15 ml of freshly prepared Talon resin and incubated for 30 min at room temp. The resin was washed twice by centrifugation with 25 ml of BT buffer at room temperature. Finally, the resin loaded into a column and washed with 20 ml of BT, pH 7.0, containing 5 mM imidazole. Protein was eluted with 20 ml of BT buffer pH 8.0, containing 100 mM imidazole. Fractions (0.5 ml) were collected and analyzed by SDS-Gel electrophoresis. Fractions containing MurD were pooled, cleaved with thrombin (20 units/mg of His-tagged MurD) to remove the histidine tag. Finally the MurD protein was purified on Superdex 75 size exclusion column and eluted in 10 mM tris, pH 7.4, 150 mM NaCl and dialyzed in 100 mM MOPS, pH 7.5, using a Slide-A-Lyzer (Pierce, Rockford, Ill.). […] The protein may be purified further, if desired, using methods known in the art.
The reaction was monitored spectrophotometrically.

E. coli MurD, sequence (P14900 whole entry): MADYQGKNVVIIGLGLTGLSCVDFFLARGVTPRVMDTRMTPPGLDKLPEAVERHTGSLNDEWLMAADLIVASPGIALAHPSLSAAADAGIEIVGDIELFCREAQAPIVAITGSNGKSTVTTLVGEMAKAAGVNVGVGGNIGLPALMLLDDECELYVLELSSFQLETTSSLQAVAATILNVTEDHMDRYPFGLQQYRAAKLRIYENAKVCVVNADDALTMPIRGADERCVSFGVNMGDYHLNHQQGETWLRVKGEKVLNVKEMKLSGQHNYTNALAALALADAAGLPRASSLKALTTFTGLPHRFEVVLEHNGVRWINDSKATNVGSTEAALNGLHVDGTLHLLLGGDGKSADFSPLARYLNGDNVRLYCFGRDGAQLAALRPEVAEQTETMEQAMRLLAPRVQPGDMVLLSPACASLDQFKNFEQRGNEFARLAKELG
Description for E. coli MurD: The ATP-dependent MurD activity was assayed by monitoring the formation of product ADP using the pyruvate kinase and lactate dehydrogenase coupled enzyme assay. The reaction was monitored spectrophotometrically.
Typically, the assay contained 100 mM BIS-TRIS-propane, pH 8.0, 200 μM NADH, 1 mM ATP, 20 mM PEP, 5 mM MgCl2, 1 mM DTT, 350 μM UDP-N-acetyl-muramyl-L-alanine, 1 mM D-glutamate, 33 units/ml of pyruvate kinase and 1660 units/ml of lactate dehydrogenase in a final volume of 200 or 400 μL. The mixture was incubated at 25° C. for 5 min and the reaction initiated by the addition of 1-10 μg of MurD. ADP formation was monitored by the decrease in absorbance at 340 nm as a function of time using a Molecular Devices SpectramaxPlus microtiterplate spectrophotomer (for 200 μl assays) or a Hewlett-Packard HP8452A spectrophotometer equipped with a circulating water bath (for 400 μl assays). Rates were calculated from the linear portions of the progress curves using the extinction coefficient for NADH, e=6220 cm^−1 M^−1. One unit of MurD activity is equal to 1 μmol of ADP formed per min at 25° C.
Assays have been conducted using 120 and 350 μM UDP-N-acetyl-muramyl-L-alanine.

For `CC(=O)N[C@H]1C(OP(=O)(O)OP(=O)(O)OC[C@H]2O[C@@H](n3ccc(=O)[nH]c3=O)[C@H](O)[C@@H]2O)O[C@H](CO)[C@@H](O)[C@@H]1O[C@H](C)C(=O)N[C@H](C)C(=O)O` (stereo partly drawn) [UDP-N-acetyl-muramyl-L-alanine], on E. coli MurD, the “substrate inhibition of the E. coli MurD” value was “substrate inhibition”.

B1: S. pyogenes: recombinant Streptococcus pyogenes MurD protein (SEQ ID NO:2), His-tag removed, partially purified (protein)
chain: MKVISNFQNKKILILGLAKSGEAAAKLLTKLGALVTVNDSKPFDQNPAAQALLEEGIKVICGSHPVELLDEDFEYMVKNPGIPYDNPMVKRALAKEIPILTEVELAYFVSEAPIIGITGSNGKTTTTTMIADVLNAGGQSALLSGNIGYPASKVVQKAIAGDTLVMELSSFQLVGVNAFRPHIAVITNLMPTHLDYHGSFEDYVAAKWMIQAQMTESDYLILNANQEISATLAKTTQATVIPFSTQKVVDGAYLKDGILYFKEQAIIAATDLGVPGSHNIENALATIAVAKLSGIADDIIAQCLSHFGGVKHRLQRVGQIKDITFYNDSKSTNILATQKALSGFDNSRLILIAGGLDRGNEFDDLVPDLLGLKQMIILGESAERMKRAANKAEVSYLEARNVAEATELAFKLAQTGDTILLSPANASWDMYPNFEVRGDEFLATFDCLRGDA
modifications: His-tag removed; Streptococcus pyogenes MurD
B1 gave a units in the series with S. pyogenes MurD (0.00137 mg protein) of 0.00017 µmol/min. In addition, in the series on S. pyogenes MurD, the Specific activity is 0.13 µmol/min/mg.
